Measurements: publication PMC10786891, “Massively parallel profiling of RNA-targeting CRISPR-Cas13d”

T1: EsCas13d, nuclease-dead (Eubacterium siraeum, UniProt B0MS50, R295A;H300A;R849A;H854A)
T1 sequence: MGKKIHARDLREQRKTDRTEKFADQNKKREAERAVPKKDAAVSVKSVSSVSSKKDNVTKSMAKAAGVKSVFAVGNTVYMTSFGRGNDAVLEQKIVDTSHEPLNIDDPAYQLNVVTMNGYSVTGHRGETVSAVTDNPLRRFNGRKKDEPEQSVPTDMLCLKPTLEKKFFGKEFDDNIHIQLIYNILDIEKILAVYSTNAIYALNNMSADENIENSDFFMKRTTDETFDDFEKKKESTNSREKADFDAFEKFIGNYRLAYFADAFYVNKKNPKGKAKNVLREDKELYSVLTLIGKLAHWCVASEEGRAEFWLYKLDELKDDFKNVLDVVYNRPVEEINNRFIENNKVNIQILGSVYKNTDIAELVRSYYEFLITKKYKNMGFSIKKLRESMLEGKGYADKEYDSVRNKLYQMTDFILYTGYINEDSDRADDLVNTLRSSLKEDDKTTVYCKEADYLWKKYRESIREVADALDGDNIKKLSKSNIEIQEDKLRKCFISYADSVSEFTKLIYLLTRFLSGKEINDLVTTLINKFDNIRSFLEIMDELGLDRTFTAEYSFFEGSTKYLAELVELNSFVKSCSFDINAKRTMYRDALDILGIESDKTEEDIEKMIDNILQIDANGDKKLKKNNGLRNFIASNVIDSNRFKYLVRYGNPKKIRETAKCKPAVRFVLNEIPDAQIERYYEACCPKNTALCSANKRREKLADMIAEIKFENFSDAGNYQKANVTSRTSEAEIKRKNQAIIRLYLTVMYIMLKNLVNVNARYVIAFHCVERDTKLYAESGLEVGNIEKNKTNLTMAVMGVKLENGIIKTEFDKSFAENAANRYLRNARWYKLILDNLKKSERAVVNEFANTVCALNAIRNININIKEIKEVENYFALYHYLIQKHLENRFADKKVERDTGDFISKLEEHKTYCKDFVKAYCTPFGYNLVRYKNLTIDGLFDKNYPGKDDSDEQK


The binders below were run against T1, EsCas13d, nuclease-dead (assay: crRNA (strand 1, pre-loaded); Mg2+; 40 mM Tris-HCl pH 7.5, 150 mM NaCl, 6 mM MgCl2, 1 mM DTT, 0.1% Tween-20, 0.2 mg/ml BSA; 25 C; 10 min per concentration, then washed). Settings: tags: His6-TwinStrep-SUMO cleaved; N-terminal SNAP kept (SNAP-Surface 488); label: 3' end held by stalled T7 RNA polymerase.

Binder	Kd [nM]
target 1 C2G,U11C (mixed) RNA 1: CACCCGUGCAAAAAUGCAGGGGUCUAAAACUGAGCGGAUAACCUCUCUAUGG RNA 2: GGGAAUGGAUCCACAUCUACGAAUUCGUACCAUAGAGAGGCUAUCCGCUGACCGAGAUCGGAAGAGCACACGU	7.4 ± 0.4
target 1 C2A,C22A (mixed) RNA 1: CACCCGUGCAAAAAUGCAGGGGUCUAAAACUGAGCGGAUAACCUCUCUAUGG RNA 2: GGGAAUGGAUCCACAUCUACGAAUUCGUAACAUAGAGAGGUUAUCCGCUAACCGAGAUCGGAAGAGCACACGU	17.8 ± 3.3
target 1 insU 3' of 20,insU 3' of 20 (mixed) RNA 1: CACCCGUGCAAAAAUGCAGGGGUCUAAAACUGAGCGGAUAACCUCUCUAUGG RNA 2: GGGAAUGGAUCCACAUCUACGAAUUCGUACCAUUUAGAGAGGUUAUCCGCUCACCGAGAUCGGAAGAGCACACGU	13.5 ± 1
target 1 insA 3' of 19,insG 3' of 8 (mixed) RNA 1: CACCCGUGCAAAAAUGCAGGGGUCUAAAACUGAGCGGAUAACCUCUCUAUGG RNA 2: GGGAAUGGAUCCACAUCUACGAAUUCGUACCAUAAGAGAGGUUAUGCCGCUCACCGAGAUCGGAAGAGCACACGU	32.7 ± 2.3
target 1 G12C,C22U (mixed) RNA 1: CACCCGUGCAAAAAUGCAGGGGUCUAAAACUGAGCGGAUAACCUCUCUAUGG RNA 2: GGGAAUGGAUCCACAUCUACGAAUUCGUAUCAUAGAGAGCUUAUCCGCUCACCGAGAUCGGAAGAGCACACGU	23.5 ± 1.5
target 1 insC 3' of 13,insC 3' of 1 (mixed) RNA 1: CACCCGUGCAAAAAUGCAGGGGUCUAAAACUGAGCGGAUAACCUCUCUAUGG RNA 2: GGGAAUGGAUCCACAUCUACGAAUUCGUACCAUAGAGAGCGUUAUCCGCUCACCCGAGAUCGGAAGAGCACACGU	8.9 ± 0.6
target 1 G5A,U8G (mixed) RNA 1: CACCCGUGCAAAAAUGCAGGGGUCUAAAACUGAGCGGAUAACCUCUCUAUGG RNA 2: GGGAAUGGAUCCACAUCUACGAAUUCGUACCAUAGAGAGGUUAGCCACUCACCGAGAUCGGAAGAGCACACGU	38 ± 2.4
target 1 complement block 3-5 (mixed) RNA 1: CACCCGUGCAAAAAUGCAGGGGUCUAAAACUGAGCGGAUAACCUCUCUAUGG RNA 2: GGGAAUGGAUCCACAUCUACGAAUUCGUACCAUAGAGAGGUUAUCCCGACACCGAGAUCGGAAGAGCACACGU	10.5 ± 1
target 1 insU 3' of 12,insG 3' of 10 (mixed) RNA 1: CACCCGUGCAAAAAUGCAGGGGUCUAAAACUGAGCGGAUAACCUCUCUAUGG RNA 2: GGGAAUGGAUCCACAUCUACGAAUUCGUACCAUAGAGAGGUUUGAUCCGCUCACCGAGAUCGGAAGAGCACACGU	13.1 ± 0.5
target 1 insC 3' of 13,insA 3' of 2 (mixed) RNA 1: CACCCGUGCAAAAAUGCAGGGGUCUAAAACUGAGCGGAUAACCUCUCUAUGG RNA 2: GGGAAUGGAUCCACAUCUACGAAUUCGUACCAUAGAGAGCGUUAUCCGCUCAACCGAGAUCGGAAGAGCACACGU	9 ± 0.5
target 1 complement block 9-12 (mixed) RNA 1: CACCCGUGCAAAAAUGCAGGGGUCUAAAACUGAGCGGAUAACCUCUCUAUGG RNA 2: GGGAAUGGAUCCACAUCUACGAAUUCGUACCAUAGAGAGCAAUUCCGCUCACCGAGAUCGGAAGAGCACACGU	19.9 ± 2.7
target 1 U8G,A9G (mixed) RNA 1: CACCCGUGCAAAAAUGCAGGGGUCUAAAACUGAGCGGAUAACCUCUCUAUGG RNA 2: GGGAAUGGAUCCACAUCUACGAAUUCGUACCAUAGAGAGGUUGGCCGCUCACCGAGAUCGGAAGAGCACACGU	19.1 ± 1.3
target 1 insC 3' of 19,insA 3' of 19 (mixed) RNA 1: CACCCGUGCAAAAAUGCAGGGGUCUAAAACUGAGCGGAUAACCUCUCUAUGG RNA 2: GGGAAUGGAUCCACAUCUACGAAUUCGUACCAUCAAGAGAGGUUAUCCGCUCACCGAGAUCGGAAGAGCACACGU	31.3 ± 2.9
target 1 insC 3' of 17,insC 3' of 13 (mixed) RNA 1: CACCCGUGCAAAAAUGCAGGGGUCUAAAACUGAGCGGAUAACCUCUCUAUGG RNA 2: GGGAAUGGAUCCACAUCUACGAAUUCGUACCAUAGCAGAGCGUUAUCCGCUCACCGAGAUCGGAAGAGCACACGU	48 ± 7
target 1 insA 3' of 19,insC 3' of 11 (mixed) RNA 1: CACCCGUGCAAAAAUGCAGGGGUCUAAAACUGAGCGGAUAACCUCUCUAUGG RNA 2: GGGAAUGGAUCCACAUCUACGAAUUCGUACCAUAAGAGAGGUCUAUCCGCUCACCGAGAUCGGAAGAGCACACGU	100 ± 40
target 1 insC 3' of 14,insG 3' of 7 (mixed) RNA 1: CACCCGUGCAAAAAUGCAGGGGUCUAAAACUGAGCGGAUAACCUCUCUAUGG RNA 2: GGGAAUGGAUCCACAUCUACGAAUUCGUACCAUAGAGACGGUUAUCGCGCUCACCGAGAUCGGAAGAGCACACGU	41 ± 8
target 1 C7A,A9G (mixed) RNA 1: CACCCGUGCAAAAAUGCAGGGGUCUAAAACUGAGCGGAUAACCUCUCUAUGG RNA 2: GGGAAUGGAUCCACAUCUACGAAUUCGUACCAUAGAGAGGUUGUACGCUCACCGAGAUCGGAAGAGCACACGU	11.5 ± 0.5
target 1 G17U,U19C (mixed) RNA 1: CACCCGUGCAAAAAUGCAGGGGUCUAAAACUGAGCGGAUAACCUCUCUAUGG RNA 2: GGGAAUGGAUCCACAUCUACGAAUUCGUACCACAUAGAGGUUAUCCGCUCACCGAGAUCGGAAGAGCACACGU	14.4 ± 0.8
target 1 U19C,C22U (mixed) RNA 1: CACCCGUGCAAAAAUGCAGGGGUCUAAAACUGAGCGGAUAACCUCUCUAUGG RNA 2: GGGAAUGGAUCCACAUCUACGAAUUCGUAUCACAGAGAGGUUAUCCGCUCACCGAGAUCGGAAGAGCACACGU	45 ± 6
target 1 insG 3' of 10,insC 3' of 9 (mixed) RNA 1: CACCCGUGCAAAAAUGCAGGGGUCUAAAACUGAGCGGAUAACCUCUCUAUGG RNA 2: GGGAAUGGAUCCACAUCUACGAAUUCGUACCAUAGAGAGGUUGACUCCGCUCACCGAGAUCGGAAGAGCACACGU	14.9 ± 0.6
target 1 insC 3' of 13,insG 3' of 1 (mixed) RNA 1: CACCCGUGCAAAAAUGCAGGGGUCUAAAACUGAGCGGAUAACCUCUCUAUGG RNA 2: GGGAAUGGAUCCACAUCUACGAAUUCGUACCAUAGAGAGCGUUAUCCGCUCAGCCGAGAUCGGAAGAGCACACGU	9.17 ± 0.3
target 1 U8C (mixed) RNA 1: CACCCGUGCAAAAAUGCAGGGGUCUAAAACUGAGCGGAUAACCUCUCUAUGG RNA 2: GGGAAUGGAUCCACAUCUACGAAUUCGUACCAUAGAGAGGUUACCCGCUCACCGAGAUCGGAAGAGCACACGU	11.2 ± 0.4
target 1 G12A,A16G (mixed) RNA 1: CACCCGUGCAAAAAUGCAGGGGUCUAAAACUGAGCGGAUAACCUCUCUAUGG RNA 2: GGGAAUGGAUCCACAUCUACGAAUUCGUACCAUAGGGAGAUUAUCCGCUCACCGAGAUCGGAAGAGCACACGU	48 ± 5
target 1 A1C,U8C (mixed) RNA 1: CACCCGUGCAAAAAUGCAGGGGUCUAAAACUGAGCGGAUAACCUCUCUAUGG RNA 2: GGGAAUGGAUCCACAUCUACGAAUUCGUACCAUAGAGAGGUUACCCGCUCCCCGAGAUCGGAAGAGCACACGU	8.1 ± 0.4
target 1 insU 3' of 7,insG 3' of 1 (mixed) RNA 1: CACCCGUGCAAAAAUGCAGGGGUCUAAAACUGAGCGGAUAACCUCUCUAUGG RNA 2: GGGAAUGGAUCCACAUCUACGAAUUCGUACCAUAGAGAGGUUAUCUCGCUCAGCCGAGAUCGGAAGAGCACACGU	13.8 ± 0.6
target 1 A1G,U8C (mixed) RNA 1: CACCCGUGCAAAAAUGCAGGGGUCUAAAACUGAGCGGAUAACCUCUCUAUGG RNA 2: GGGAAUGGAUCCACAUCUACGAAUUCGUACCAUAGAGAGGUUACCCGCUCGCCGAGAUCGGAAGAGCACACGU	10.2 ± 0.9
target 1 insA 3' of 3,insG 3' of 2 (mixed) RNA 1: CACCCGUGCAAAAAUGCAGGGGUCUAAAACUGAGCGGAUAACCUCUCUAUGG RNA 2: GGGAAUGGAUCCACAUCUACGAAUUCGUACCAUAGAGAGGUUAUCCGCUACGACCGAGAUCGGAAGAGCACACGU	7.05 ± 0.31
target 1 del11,del22 (mixed) RNA 1: CACCCGUGCAAAAAUGCAGGGGUCUAAAACUGAGCGGAUAACCUCUCUAUGG RNA 2: GGGAAUGGAUCCACAUCUACGAAUUCGUACAUAGAGAGGUAUCCGCUCACCGAGAUCGGAAGAGCACACGU	78 ± 33
